Bounds are passed on as bounds.

We go through 1 substance from article PMC3978581.

Assay [1] concerns the target Human prolactin receptor, endogenous on human breast cancer cell lines (human (endogenous in T47D, SKBR3, MDA-MB-468, MCF-7, BT474)) (UniProt P16471).
Assay [2] shares this target. The source holds these as a separate data set.

Chain of UniProt P16471 (P16471 25-622, stated change not applied): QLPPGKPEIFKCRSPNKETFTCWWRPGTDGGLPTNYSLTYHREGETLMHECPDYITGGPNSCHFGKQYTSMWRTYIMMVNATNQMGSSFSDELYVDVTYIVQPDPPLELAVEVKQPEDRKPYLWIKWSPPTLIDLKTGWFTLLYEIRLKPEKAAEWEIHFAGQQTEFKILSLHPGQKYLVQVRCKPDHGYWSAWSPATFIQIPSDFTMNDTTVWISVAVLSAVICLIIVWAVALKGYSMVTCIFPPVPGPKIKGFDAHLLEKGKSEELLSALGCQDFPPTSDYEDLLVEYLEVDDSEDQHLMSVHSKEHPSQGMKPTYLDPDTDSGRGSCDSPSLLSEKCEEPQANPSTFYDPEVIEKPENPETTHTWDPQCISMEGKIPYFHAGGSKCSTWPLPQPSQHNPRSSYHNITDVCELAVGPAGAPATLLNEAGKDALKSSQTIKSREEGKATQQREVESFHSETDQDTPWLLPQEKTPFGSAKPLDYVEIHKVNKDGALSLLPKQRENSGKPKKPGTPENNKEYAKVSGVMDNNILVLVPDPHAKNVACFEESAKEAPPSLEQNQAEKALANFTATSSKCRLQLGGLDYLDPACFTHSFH

“Recombinant human prolactin (from UniProt P01236 29-227) (ligand)”: the loss of prolactin-stimulated Stat5 and Erk phosphorylation in T47D and SKBR3 cells over pHe 7.4 to 6.6; percent diminished at pHe 6.8 against pHe 7.4 in assay [1] is above 80%. Moreover, in assay [2], the EC50 of prolactin (1 to 100 nM, 15 min) for Stat5 tyrosine phosphorylation in SKBR3 cells at pHe 6.8 was 119 nM; the EC50 of prolactin (1 to 100 nM, 15 min) for Stat5 tyrosine phosphorylation in SKBR3 cells at pHe 7.4 stood at 3.3 nM; the EC50 of prolactin (1 to 100 nM, 15 min) for Stat5 tyrosine phosphorylation in T47D cells at pHe 6.8 turned out to be 37.8 nM; the EC50 of prolactin (1 to 100 nM, 15 min) for Stat5 tyrosine phosphorylation in T47D cells at pHe 7.4 came to 3.7 nM.
